The record followed here is CN115611981A (GENOR BIOPHARMA CO LTD, dated 2023).

The assay addresses T1, PD-1 (UniProt Q15116 25-288, limits assumed).
T1 construct: whole, on cells; also called Jurkat/PD-1细胞表面的PD-1; Jurkat/PD1
Kind of assay: Jurkat/PD-1 + CHO/PD-L1 NFAT-luciferase reporter blockade assay (binding inferred). (Reporter assays use an easily measured gene product as a stand-in for the process of interest.)

T1 sequence (Q15116 25-288 limits assumed): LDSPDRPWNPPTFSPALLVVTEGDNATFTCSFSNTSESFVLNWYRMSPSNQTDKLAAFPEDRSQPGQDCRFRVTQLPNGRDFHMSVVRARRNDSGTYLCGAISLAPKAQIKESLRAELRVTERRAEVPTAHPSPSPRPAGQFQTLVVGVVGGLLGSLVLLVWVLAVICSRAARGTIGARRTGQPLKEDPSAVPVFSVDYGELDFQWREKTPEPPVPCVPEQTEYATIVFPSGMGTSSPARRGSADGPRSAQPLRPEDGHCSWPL

B1: G-Ab1 (antibody, human IgG4 S228P, kappa, V domains shown)
VH: QIQLVQSGSELKKPGASVKVSCKASGYTFTNFGMNWVRQAPGQGLKWMGWISGYTREPTYAADFKGRFVISLDTSVSTAYLQISSLKAEDTAVYYCARDVFDYWGQGTLVTVSS
VL: DIVLTQSPASLAVSPGQRATITCRASESVDNYGYSFMNWFQQKPGQPPKLLIYRASNLESGVPARFSGSGSRTDFTLTINPVEADDTANYYCQQSNADPTFGQGTKLEIKR
notes: The control used was an IgG4 isotype control; also called 抗PD-1抗体; G-Ab1抗体
As to B1, the binding result is listed as “binds”.
